# Laboratory results from article PMC9234707 (2022).
# Biological target: ACVR2A (Homo sapiens (Human), UniProt P27037)
# Assay: SPR, receptor-Fc dimer captured (avidity), single 80 nM injections
# Chain of ACVR2A (P27037 26-118): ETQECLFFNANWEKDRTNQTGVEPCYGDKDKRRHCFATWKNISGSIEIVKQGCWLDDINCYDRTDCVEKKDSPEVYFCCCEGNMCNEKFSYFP
row,Binder,Kd [nM]
1,ActivinB (protein) chain 1: GLECDGRTNLCCRQQFFIDFRLIGWNDWIIAPTGYYGNYCEGSCPAYLAGVPGSASSFHTAVVNQYRMRGLNPGTVNSCCIPTKLSTMSMLYFDDEYNIVKRDVPNMIVEECGCA chain 2: GLECDGRTNLCCRQQFFIDFRLIGWNDWIIAPTGYYGNYCEGSCPAYLAGVPGSASSFHTAVVNQYRMRGLNPGTVNSCCIPTKLSTMSMLYFDDEYNIVKRDVPNMIVEECGCA,0.053
2,BMP15 (protein) chain 1: PENNQCSLHPFQISFRQLGWDHWIIAPPFYTPNYCKGTCLRVLRDGLNSPNHAIIQNLINQLVDQSVPRPSCVPYKYVPISVLMIEANGSILYKEYEGMIAESCTCR chain 2: PENNQCSLHPFQISFRQLGWDHWIIAPPFYTPNYCKGTCLRVLRDGLNSPNHAIIQNLINQLVDQSVPRPSCVPYKYVPISVLMIEANGSILYKEYEGMIAESCTCR,> 80
3,GDF11 (protein) chain 1: GLDCDEHSSESRCCRYPLTVDFEAFGWDWIIAPKRYKANYCSGQCEYMFMQKYPHTHLVQQANPRGSAGPCCTPTKMSPINMLYFNDKQQIIYGKIPGMVVDRCGCS chain 2: GLDCDEHSSESRCCRYPLTVDFEAFGWDWIIAPKRYKANYCSGQCEYMFMQKYPHTHLVQQANPRGSAGPCCTPTKMSPINMLYFNDKQQIIYGKIPGMVVDRCGCS,0.052

# Other lines, results leading:
row,Kd [nM],Binder
1,1,BMP10 (protein) chain 1: AKGNYCKRTPLYIDFKEIGWDSWIIAPPGYEAYECRGVCNYPLAEHLTPTKHAIIQALVHLKNSQKASKACCVPTKLEPISILYLDKGVVTYKFKYEGMAVSECGCR chain 2: AKGNYCKRTPLYIDFKEIGWDSWIIAPPGYEAYECRGVCNYPLAEHLTPTKHAIIQALVHLKNSQKASKACCVPTKLEPISILYLDKGVVTYKFKYEGMAVSECGCR
2,> 80,Nodal (protein) chain 1: DRSQLCRKVKFQVDFNLIGWGSWIIYPKQYNAYRCEGECPNPVGEEFHPTNHAYIQSLLKRYQPHRVPSTCCAPVKTKPLSMLYVDNGRVLLDHHKDMIVEECGCL chain 2: DRSQLCRKVKFQVDFNLIGWGSWIIYPKQYNAYRCEGECPNPVGEEFHPTNHAYIQSLLKRYQPHRVPSTCCAPVKTKPLSMLYVDNGRVLLDHHKDMIVEECGCL
